The text below walks through data of patent publication US20220288219A1 (MYTHIC THERAPEUTICS, published 2022).

To fix the notation:
T1: CD22 Protein (His Tag), Sino Biological Cat. No. 11958-H08H (UniProt P20273 20-687)
T1 construct: soluble analyte, 50 nM in BLI; also called Sino Biological antigen
T1 sequence (looked up): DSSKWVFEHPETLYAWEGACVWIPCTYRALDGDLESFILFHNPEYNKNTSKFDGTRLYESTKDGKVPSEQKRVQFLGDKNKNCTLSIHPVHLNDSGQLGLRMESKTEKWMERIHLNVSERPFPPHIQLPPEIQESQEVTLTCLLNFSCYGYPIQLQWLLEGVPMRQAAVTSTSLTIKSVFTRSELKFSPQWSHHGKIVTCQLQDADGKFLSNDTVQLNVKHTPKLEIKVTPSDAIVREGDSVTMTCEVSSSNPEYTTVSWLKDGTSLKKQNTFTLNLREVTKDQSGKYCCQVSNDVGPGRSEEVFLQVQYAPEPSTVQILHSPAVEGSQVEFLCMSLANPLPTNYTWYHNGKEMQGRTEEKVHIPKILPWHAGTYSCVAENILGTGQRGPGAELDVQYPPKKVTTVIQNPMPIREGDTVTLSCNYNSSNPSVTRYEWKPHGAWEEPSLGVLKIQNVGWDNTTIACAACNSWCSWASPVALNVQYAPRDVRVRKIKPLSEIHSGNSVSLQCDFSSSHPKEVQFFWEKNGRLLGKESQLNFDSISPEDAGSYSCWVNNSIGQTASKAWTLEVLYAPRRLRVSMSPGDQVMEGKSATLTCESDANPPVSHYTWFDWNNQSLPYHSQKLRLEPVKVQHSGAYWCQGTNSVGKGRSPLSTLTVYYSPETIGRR

B1: MYT2275 (antibody, V domains shown)
VH: EVQLVESGGGLVKPGGSLRLSCAASGFAFSHYDMSWVRQAPGKGLEWVAYISSGGGTTYYPDTVKGRFTISRDNAKNSLYLQMSSLRAEDTAMYYCARHSGYGSSYGVLFAYWGQGTLVTVSS
VL: DIQMTQSPSSLSASVGDRVTITCRASQDISNYLNWYQQKPGKAVKLLIYYTSILHSGVPSRFSGSGSGTDYTLTISSLQQEDFATYFCQQGNTLPWTFGGGTKVEIK
notes: TRPH-222 VH I31H; tie by order
B2: MYT2301 (antibody, V domains shown)
VH: B1 VH with H31I, G101H
VL: B1 VL
notes: TRPH-222 VH G101H; tie by order
B3: MYT2303 (antibody, V domains shown)
VH: B1 VH with H31I, G103H
VL: B1 VL
notes: TRPH-222 VH G103H; tie by order
B4: MYT1496 (antibody, V domains shown)
VH: QVQLVQSGAEVKKPGSSVKVSCKASHYTFTSYWLHWVRQAPGQGLEWIGYINPRNDYTEYNQNFKDKATITADESTNTAYMELSSLRSEDTAFYFCARRDITTFYWGQGTTVTVSS
VL: DIQLTQSPSSLSASVGDRVTMSCKSSQSVLYSANHKNYLAWYQQKPGKAPKLLIYWASTRESGVPSRFSGSGSGTDFTFTISSLQPEDIATYYCHQYLSSWTFGGGTKVQIK
notes: ADCT-602 VH G26H; tie by order
B5: MYT1509 (antibody, V domains shown)
VH: B4 VH with H26G, P53H
VL: B4 VL
notes: ADCT-602 VH P53H; tie by order
B6: MYT1505 (antibody, V domains shown)
VH: B4 VH with H26G, H35A
VL: B4 VL
notes: ADCT-602 VH H35A; tie by order
B7: MYT1507 (antibody, V domains shown)
VH: B4 VH with H26G, I51H
VL: B4 VL
notes: ADCT-602 VH I51H; tie by order
B8: MYT1508 (antibody, V domains shown)
VH: B4 VH with H26G, N52H
VL: B4 VL
notes: ADCT-602 VH N52H; tie by order
B9: MYT1521 (antibody, V domains shown)
VH: B4 VH with H26G, K65H
VL: B4 VL
notes: ADCT-602 VH K65H; tie by order
B10: MYT1504 (antibody, V domains shown)
VH: B4 VH with H26G, L34H
VL: B4 VL
notes: ADCT-602 VH L34H; tie by order
B11: MYT1498 (antibody, V domains shown)
VH: B4 VH with H26G, T28H
VL: B4 VL
notes: ADCT-602 VH T28H; tie by order
B12: MYT1513 (antibody, V domains shown)
VH: B4 VH with H26G, Y57H
VL: B4 VL
notes: ADCT-602 VH Y57H; tie by order
B13: MYT1499 (antibody, V domains shown)
VH: B4 VH with H26G, F29H
VL: B4 VL
notes: ADCT-602 VH F29H; tie by order
B14: MYT1497 (antibody, V domains shown)
VH: B4 VH with H26G, Y27H
VL: B4 VL
notes: ADCT-602 VH Y27H; tie by order

Numbering of substitutions follows the chain as printed. Numbers in names are those of the source.

The target in this assay is T1, CD22 Protein (His Tag), Sino Biological …. The experiment in a line: BLI, IgG on anti-human Fc sensor. A general note: In BLI a coated tip is dipped into the sample, and binding shifts an interference pattern.
With B1, the binding result is “no binding (tested: 50 nM)”.

Regarding B2, the binding result is “no binding (tested: 50 nM)”.

On to B3, for which the binding result is “no binding (tested: 50 nM)”.

As to B4, the binding result is “no binding (tested: 50 nM)”.

Turning to B5, the binding result is “no binding (tested: 50 nM)”.

Take B6: the binding result is given as “no binding (tested: 50 nM)”.

Consider B7, for which the binding result is listed as “no binding (tested: 50 nM)”.

Turning to B8, the binding result is reported as “no binding (tested: 50 nM)”.

Turning to B9, the binding result is “no binding (tested: 50 nM)”.

Consider B10, for which the binding result is “no binding (tested: 50 nM)”.

B11: the binding result is reported as “no binding (tested: 50 nM)”.

In the case of B12, the binding result was “no binding (tested: 50 nM)”.

For B13, the binding result was “no binding (tested: 50 nM)”.

For the molecule B14, the binding result is listed as “no binding (tested: 50 nM)”.
